Data reported in PMC6050537, “Inhibition of low-density lipoprotein receptor degradation with a cyclic peptide that disrupts the homodimerization of IDOL E3 ubiquitin ligase† †Electronic supplementary information (ESI) available. See DOI: 10.1039/c8sc01186a” (Chemical Science, 2018).

What was measured:
Full length IDOL (1–445) [1] = target: T1, Full length IDOL (1–445) (UniProt Q8WY64 1-445, NT-647-NHS dye (only the labelled copy in the MST assays)); test: cell-based or functional assay
Full length IDOL (1–445) [2] = target: T1, Full length IDOL (1–445); test: MST; Monolith NT.115; 6× His IDOL labelled with NT-647-NHS dye at 50 nM, peptides titrated; 10 mM HEPES, 300 mM NaCl, 1 mM TCEP, 0.05% TWEEN-20, pH 8.0, 5% DMSO; conditions: both partners purified

B1: RINGPep2 (cyclo-CF-Cha-LYT) (peptide)
chain: CFXLYT
HELM: PEPTIDE1{C.F.[Cha].L.Y.T}$PEPTIDE1,PEPTIDE1,1:R1-6:R2$$$V2.0
SMILES: CC(C)C[C@@H]1NC(=O)[C@H](CC2CCCCC2)NC(=O)[C@H](Cc2ccccc2)NC(=O)[C@H](CS)NC(=O)[C@H]([C@@H](C)O)NC(=O)[C@H](Cc2ccc(O)cc2)NC1=O
EC50 of Tat-RINGPep2 (0–35 μM) on LDLR protein levels in HepG2 cells; blocks IDOL homodimerization (Full length IDOL (1–445) [1]): 15 to 20 µM | Kd (Full length IDOL (1–445) [2]): 4.6 µM
